These results are taken from the nanobody polyreactivity screen of Harvey et al. (2022).

The series can be described thus: yeast display, Sf9 membrane polyspecificity reagent, FACS + sequencing; frameworks hold sequencing errors. In outline:
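Galactose-induced (36–48 hours) yeast carrying a synthetic nanobody display library were exposed to 10% biotinylated, detergent-solubilized Sf9 membrane reagent at 4 °C for 1 hour. FACS followed streptavidin microbead enrichment, using low and high (top ~1%) gates for expression (anti-HA) and reagent binding (streptavidin). Colony PCR, MiSeq 2 × 250 sequencing and CDR-length filtering followed. Labels for polyreactivity reflect the gate of origin.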
Consider “QVQHEDSGGCLVQAAGSLSVSCAATGSTFDTYEMGRSRKATGKEMELVAAISSGGGTKYADSVKGRFKISRDNAKNTVYLQMNSLKPEDTAVYYCAADKAVGDSTRYYYWGQGTQVTVSS”, for which the “polyreactivity (PSR sort gate)” value was “low polyreactivity”.
For “QVQHEESGGGLVQAGGSLRLICAASGRTFADNAMGWYRQAPGTERELVPSISSVTSTNYADSVKGRFTISRDNAKYTVYFQMNSLKPEDPAVYDCNAYGPIWYTAVLGFGRYYGWTDYWGQGTQVTVSS”, the “polyreactivity (PSR sort gate)” value is recorded as “low polyreactivity”.
Then “QVQHEESGGGLVQAGGSLRLSCAASGFTFRGYAMGWYRQAPGKERELVAAISRSGGGTYYADSVKGRFTISRDNAKNTVYLQMNSLKPEDTAVYYCAAVYRRTRSWKFDYWGQGTQVTVSS”, with “high polyreactivity”; and “QVQHEESGGGLVQAGGSLRLSCAASGRIFGAYPMGWSRQATGKERELVAAITSRGGNTYYADSVKGRFTISRDNAKNTVYLQMNSLKPEDTAVYYCAARHDKRRQYYVGQSAFDYWGQGTQVTVSS”, with “low polyreactivity”; and “QVQHEESGGGLVQAGGSLRLSCAASGRTFLQYAMGWYRQAPGKERELVDAITTSGGDTYYSDSVKGRFTISRDNAKNTVYLQMKSLKPEDTAVFYCNADFRVYIPHVPYLVDFYYWGQGTQVTVSS”, with “low polyreactivity”.
For the sequence “QVQHEESGGGLVQAGGSLRLSCAASGSIFYDNGMGWYRPAPGKERELVAAISRGGTTNYADSVKGRFTISRDKAKNTVYFQMNSLKPEDTAVYYCNADTRFTYWGSWYDYWGQGTQVTVSS”, the “polyreactivity (PSR sort gate)” value is on record as “low polyreactivity”.
For “QVQHEESGGGLVQAGGSLRLSCAASGSIIAYNAMGWYRQAPGKERELVAAITDSGGSTFDADSVKGRFTFSRDYGMITVYLQMNSLIPEDTAVYYCATSGDRLVWGQGTQVTVSS”, the “polyreactivity (PSR sort gate)” value is “low polyreactivity”.
“QVQHEESGGGLVQAGGSLRLSCASSGLIFKFSAMGWYRQAPGKERELVAAITSRGGSTYYADSVKGRFTISRDNAKNTVYFQMNSLKPEDTEVYYCAADVRTQHYNAQYDYWGQGTQVTVSA”: the “polyreactivity (PSR sort gate)” value is reported as “high polyreactivity”.
Regarding “QVQHEETGGGLVQAGGSLRLSCAASGSTYRKNSMGWYRPAPGKERAFVAAISRSGGSTYYADSVKGRFTISRDNAKNTVYLQMNSLKPEDTAVYYCAASYYQHQYSYELGDYWGQGTQVTVSS”, the “polyreactivity (PSR sort gate)” value was “low polyreactivity”.
For the sequence “QVQHEKSRGALVQAGGSLRLSCAASGSTVEKYTMGWYREAPGKVRELVAAISKSGGSTYYADSVKGRFTISRDNAMNTVYLQMNSLNPEDTAVDYCAALQYPRAGFDYWGQGTQVTVSS”, the “polyreactivity (PSR sort gate)” value is on record as “high polyreactivity”.
The result for “QVQHGESGGGLVQAGGSLRLTCAASGSIFKYNAMGWYRQAPGKERELDAAISLSGASRSYADSVKGRFTISRVNAKNTVYLQMNSLKPEDTAVYYCNAYYWYYSTRKYYYWGQGTQETVSS” reads “high polyreactivity”.
Then “QVQHLESGGGLVQAGGSLRLSCAASGFTFGYYAMGWYRQAPGKEREFVATISYGTGSTYYADSVKGRFTISRDNAKNTVYLQMNSLKPEDTAVYYCNADTWPGEYNGYFSGAYDYWGQGTQVTVSS”, with “high polyreactivity”; and “QVQHVESAGGLVQAGGILRLSCAASGRIFYPYAMGWYRQAPGKERELVAAISSSGGSTYYADSVKGRFTISRDNAKNTVSLQMNSLKPEDTAFYYCNKDFQYYPRIFGYWGQGTQVTVSS”, with “high polyreactivity”.
Take “QVQHVESAGGLVQAGGILRLSCHASGFTIHAYVLGWYRQAPGKERELVAAISSGGSTYYADSVKGRFTISRDNAKNTGYLQMNSLKPEATSVYYCAAAYPYYWHLDFWGQGSQVTVSS”: the “polyreactivity (PSR sort gate)” value is listed as “low polyreactivity”.
For the sequence “QVQHVESAGGLVQAGGSLRLSCAASGITFKVYAMGWYRQAPGKERELVATISRSDAGTSYADSVKGRFTISRDNAKNTVYLQMNSLKPEDTAVYYCAATYVSKKTHTKYDYWGQGTQVTVSS”, the “polyreactivity (PSR sort gate)” value was “high polyreactivity”.
In the case of “QVQHVESAGGLVQEGGSLRLSCAASGSTSVKYPMGWYRQAPGKERELVAAIRKRGDSTYYADSVKGRFTISRDNAKNTVYLQMNSLKPEDTAVYYCAAQYLRGRGYWGQGTQVTVSS”, the “polyreactivity (PSR sort gate)” value is “low polyreactivity”.
Then “QVQHVESGGALVQAGGSLRLSCAASGRIFSPNAMGWYIQAPGKEWDLVAAISSGGSTYADSVKGRFTISRDNAKNTVYLQMNSLKPEDTAVYYCARTYQWTVAGRYRAYHAGYYWGQGTQVTVSS”, with “high polyreactivity”; and “QVQHVESGGGIVQAGGSLRLSCAASGFTFWYYAMGWYRQAPGKERELVAVINTSGGSTYADSVKGRFTISRDNAKNTVFLQMNSLKPEDTAVYYCNKDFIYGYDAASYRPEYDYWGQGTQVTVSS”, with “low polyreactivity”.
Regarding “QVQHVESGGGIVQAGGSLRLSCAASGITFYGNTMGWYRPARGKERELVARISSGGSTNYADSVKGRFTISREKAKNSGYLQMNSLKPEDTAVYYCAVKQYWYIWSGYGYDYWGQGTQVTVSS”, the “polyreactivity (PSR sort gate)” value is on record as “high polyreactivity”.
Then “QVQHVESGGGIVQAGGSLRLSCAASGSTFSGYAMGWYRQAPGKERELVASISSGGRTTYADSVKGRFTISRDNAKNTVYLQMNSLKPEDTAVSYCAKRIRPGYARLYSWGQGTQVTVSS”, with “high polyreactivity”; and “QVQHVESGGGLGQAGGSLRLSCAASGLTFSVYAMGWSRQAPGKERELYAAISYSGVSTYADSEKGRFTISRDNAKNTVYLQMNSLKPEDTAVYYCNARWVREGYRRWYDYWGQGTQVTVSS”, with “low polyreactivity”; and “QVQHVESGGGLLQAGGSLRLSCAASGRIFWINAMGWYIQAPGKERELVATISSGSTSYADSVKGRFTITRDNAKNTVYLQMNSLKPEDTAVYYCAVSLRYTRSGAYDYWGQGTQVTVSS”, with “low polyreactivity”.
The result for “QVQHVESGGGLVHAGGSLRLSCAASGRIFGGYAMGWYRQPPGKDREFVATISRSGSSTYYADSVKGRFTISRDNAKNTVYLQMNSLKPEDTAVYYCAAVIRRPNQWYWWTNSDYWGQGTQVTVSS” reads “high polyreactivity”; that for “QVQHVESGGGLVHAGGSLRLSCAASGSIASYAMGWYRHATGKEKELVAGISWSGGSTYYADSVKGRFTISRDNAKNNVYLQMISLKPEDTAVYYCAARRFCPNRDSRMGYWGQGTQVTVSS”, “high polyreactivity”; that for “QVQHVESGGGLVHAGGSLRLSCASSGSIFYPYAMGWYRQAQGKERELVAAIRNGGSTYYTDSVKGRFTISRDNAKNTVYLQMNSLKPEDTAVYYCAASVRRRHPFEYWGQGTQVTVSS”, “high polyreactivity”.
Turning to “QVQHVESGGGLVKAGGSLRLSCAASGFTFGVYAMGWYRLAPGKERELVAAISRRGTSTYYADSVKGRFTISRDNAKNTVYLQMNSLKPEDTAVYYCNARRYQVTVDHWGQGTQVTVSS”, the “polyreactivity (PSR sort gate)” value is “high polyreactivity”.
For “QVQHVESGGGLVQAGCSLRLCCAASGSTFGGYAMGWSSQAHGNERELVAGITIAVCSTYYADSVKGRFTISRDNAKNTVYLQMNSLKPEDTAVYYCAADGLSWYNYWGPGTQVTVSS”, the “polyreactivity (PSR sort gate)” value is listed as “high polyreactivity”.
Take “QVQHVESGGGLVQAGCSLRLSCAASGSIFSSYAMGWYRQAPGKERELVAAISQSGGDTYYADSVKGRFKISRDNAKNTVYLQMNSLKPEDTAVYYCAASVWFYPMDYWGQGTQVTVSS”: the “polyreactivity (PSR sort gate)” value was “low polyreactivity”.
Regarding “QVQHVESGGGLVQAGCSLRLSCAASGSIFWRYAMGWSRQAHGKEREFVAAISGSGVRTSYADSVKGRFTISRDNAKNTVYLQMNSLIPEDTAVYYCAARVSYRYTSAAYEYWGQGTQVTVSS”, the “polyreactivity (PSR sort gate)” value was “high polyreactivity”.
As to “QVQHVESGGGLVQAGGRLRLSCAASGSIFGSNAMGWYRQEPGKERELVAVISRRGGSTYYADSVKGRFTISRDNAKNTVYLQMNSLKPEDTAVYYCADRVWYPRYDYWGQGTQVTVSS”, the “polyreactivity (PSR sort gate)” value is “high polyreactivity”.
Then “QVQHVESGGGLVQAGGSHRLSCAASGSIYWWNAMGWYRQAPGKERELVAAISFSGGSTYYADSVKGRFTISRDNAKNTVYLQMNSLKPEDTAVYYCAAEAYDDYDYWGQGTQVTVSS”, with “low polyreactivity”.
The result for “QVQHVESGGGLVQAGGSLLLSCAASGSIFGGNAKGWYRQAPGKERELVAVITSRGGSTYYADSVKGRFTISRDNAKNTVSLQMNSLKPEDTAVYYCNKRYLNRREGTDDYWGQGTQVTVSS” reads “high polyreactivity”; that for “QVQHVESGGGLVQAGGSLPLSCAASGFIFTSNSMGWYRQAPGKESEFVAAITSGGITYYADSVKGRFTISRDNAKNTVYLQMNSLKPEDTAVYYCAAVLSYQTPKYYRWRYGYWGQGTQVTVSS”, “low polyreactivity”.
Then “QVQHVESGGGLVQAGGSLPLSCAASGITFSKYAMGWYRQAPGKERELVAAITRSGGSTYYADSVKGRFTISRDNAKNTVYLQMNSLKPEDTAVYYCAAKRRERYGQTYGYWGQGTQVTVSS”, with “high polyreactivity”; and “QVQHVESGGGLVQAGGSLRLICAASGITFYFNAMGWYRQAPGKERELVAAISRPGGSTYYADSVKGRFTISRDNAKNTVYLQMNSLKPEDTAVYYCAAEAYFELSGGGLEYGYDYWGQGTQVTVSS”, with “high polyreactivity”.
For “QVQHVESGGGLVQAGGSLRLICAASGLTSYYAMGSYRQAPGKEREIVAAIDGSDGNTYYADSVKGRYTISRDNAKNTVYLQMNSLKPEYTAVYYCNAETVLYWWSWENDYWGQGTQVTVSL”, the “polyreactivity (PSR sort gate)” value is listed as “high polyreactivity”.
The result for “QVQHVESGGGLVQAGGSLRLICAASGSTFGDNAKGRYREAPGKERELVAVITSDTSTYYADSVKGRFTISRDNAKNTVYLQMNSLKPEDTAVYYCAADWGGLWFWYEYWGQGTQVTVSS” reads “low polyreactivity”; that for “QVQHVESGGGLVQAGGSLRLRCAASGTTFSSNAMGWSRHAPGKERELVASITRGGSTSADSVKGRFTISRDNAKNTVYLQMNSLKPEDTAVYYCAKSVTGWRGLWYTPRNYYWGQGTQVTVSS”, “high polyreactivity”; that for “QVQHVESGGGLVQAGGSLRLSCAASESILNRYVMGWYRQATGKERELVCTYYADSVKVRFTISRDNAKNTVYLQMNSLKPEDTAVYYCAADVYLYYAGSRYYYWGQGTQVTVSS”, “low polyreactivity”.
Turning to “QVQHVESGGGLVQAGGSLRLSCAASGFIFARNAMGWYRQARGKERELVAVISTRGRTYYADSVKGRFTFSRDNAKNTVYLQMNSLKPEDTAVYYCNADKVIGYDYWGQGTQVTVSS”, the “polyreactivity (PSR sort gate)” value is on record as “high polyreactivity”.
The result for “QVQHVESGGGLVQAGGSLRLSCAASGFIFPVYAMGWYRQAPGKDRELVAAISSGGITNYADSVKVRFTISRDNAKNTVYLQMNSLKPEDTAVYYCAARDYVRFGLYDYDYWGQGTQVTVSS” reads “low polyreactivity”.
